According to patent US7135457:

T1: human D2H transporter receptor domain, amino acid residues 387-685, His-tag fusion protein (human), Q07837
T1 chain: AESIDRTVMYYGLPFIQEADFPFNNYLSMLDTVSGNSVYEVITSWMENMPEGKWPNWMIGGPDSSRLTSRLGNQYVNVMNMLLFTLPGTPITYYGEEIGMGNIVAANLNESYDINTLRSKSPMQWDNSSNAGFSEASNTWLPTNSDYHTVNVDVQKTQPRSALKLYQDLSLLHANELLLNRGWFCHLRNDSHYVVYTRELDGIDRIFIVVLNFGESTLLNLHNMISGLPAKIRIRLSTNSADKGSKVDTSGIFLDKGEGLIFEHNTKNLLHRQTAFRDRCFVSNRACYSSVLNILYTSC


Assays:
[1] = target: T2, human sucrase-isomaltase complex (hSI) receptor domain, amino acid residues 272-667, His-tag fusion protein (human), P14410; test: phage ELISA, coated hSI domain
[2] = target: T2, human sucrase-isomaltase complex (hSI) …; test: phage ELISA, OD on hSI over OD on BSA
[3] = target: T1, human D2H transporter receptor domain, …; test: phage ELISA, coated D2H domain
[4] = target: T1, human D2H transporter receptor domain, …; test: phage ELISA, OD on D2H over OD on BSA

T2 sequence (P14410 272-667, one chain of several): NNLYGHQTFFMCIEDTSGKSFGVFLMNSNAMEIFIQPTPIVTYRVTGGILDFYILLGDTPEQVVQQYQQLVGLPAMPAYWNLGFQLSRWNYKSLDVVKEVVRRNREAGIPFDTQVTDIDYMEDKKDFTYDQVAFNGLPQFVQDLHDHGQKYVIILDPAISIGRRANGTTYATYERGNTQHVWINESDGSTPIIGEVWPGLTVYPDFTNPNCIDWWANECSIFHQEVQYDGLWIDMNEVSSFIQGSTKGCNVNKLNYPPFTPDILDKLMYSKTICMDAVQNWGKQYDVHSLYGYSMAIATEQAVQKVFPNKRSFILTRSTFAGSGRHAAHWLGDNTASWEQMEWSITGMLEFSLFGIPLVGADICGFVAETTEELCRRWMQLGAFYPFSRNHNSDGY

Binder	OD [1] [OD 650 nm]	hSI/BSA [2]	OD [3] [OD 650 nm]	D2H/BSA [4]
SPRSFWPVVSRHESFGISNYLGCGYRTCISGTMTKSSPIYPRHS (modifications not checked) [phage S21]	0.845	9		
SWSSWNWSSKTTRLGDRATREGCGPSQSDGCPYNGRLTTVKPRT (modifications not checked) [phage DCX36]			0.293	5
